Laboratory results: the supplement of paper PMC9170038

Tested on: MS2 coat protein
Test: apparent KD of MS2 coat protein; designed switch direction (-1 OFF switch, 1 ON switch): -1; higher = weaker reporter binding
How it was run: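 Normalised cluster fluorescence was curve-fitted, and each design's median over clusters is its apparent KD. Before this, SNAP-549-labelled MS2 coat protein was titrated from 0.7 or 1.5 nM, doubling to 3 µM, over RNA switches transcribed on Illumina chips by stalled E. coli RNA polymerase. Titrations had no input, 200 uM small-molecule ligand, or an oligonucleotide input, and steps lasted 0.8–1.5 h (lowest) to 10–20 min (highest).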

[1] = Eterna round: R95, input ligand: microRNA oligo, concentration not stated
[2] = Eterna round: R95, input ligand: FMN 200 uM
[3] = Eterna round: R95, input ligand: none
[4] = input ligand: microRNA oligo, concentration not stated

| Sequence | apparent KD of MS2 coat protein [1] [nM] | apparent KD of MS2 coat protein (input ligand: FMN 200 uM) [nM] | apparent KD of MS2 coat protein (input ligand: none) [nM] | also measured |
| --- | --- | --- | --- | --- |
| CUGAGCUGAGGAUAUACAUGAGGAUCACCCAUGUGAAGUAGCUUGCGUACAGGCAGAUGUAGAAGGCAGUUCGG [JL-ex3-3.31 Brourd mod] (puzzle: Exclusion 3) | 34.6 |  |  |  |
| CUGAGCUGAGGAUAUACAUGAGGAUCACCCAUGUGAAGUAGCUUGCGUACAGGCAGAUGUAGAAGGCAGUUCGG [Mod of JL 1 - Jieux - Exclusion 3] (Eterna round: R97, puzzle: Exclusion 3) |  | 250 | 42.1 |  |
| CUGAGCUGAGGAUAUACAUGAGGAUCACCCAUGUGUUCCAGCUUGGGUACAGGCACAUGUAGAAGGCAGUUCGG [Mod of JL - ex3-3.35 Brourd mod] (puzzle: Exclusion 3) | 62 |  |  |  |
| CUGAGCUGAGGAUAUACAUGAGGAUCACCCAUGUUAAGCAGCUAGUGAAGAAGUAGAUGUAGAAGGCAGUUCGG [Mod of JL 21 - Jieux - Exclusion 3] (Eterna round: R97, puzzle: Exclusion 3) |  | 75.2 | 21 |  |
| CUGAGGUAGCGGUCCUAUGACAUGAGGAUCACCCAUGUACCUUGCUUCGAGCUUAUUGCUCGUCUUAUGAUUCUCGG [Mat - Sensor v3 - turn-off var 1 - JL Mod - D33] (puzzle: Sensor v3, turn-off variant 1) | 714 |  |  | apparent KD of MS2 coat protein [2]: 551 nM; apparent KD of MS2 coat protein [3]: 613 nM |
| CUGAGGUAGCGGUCCUAUGACAUGAGGAUCACCCAUGUACCUUGCUUCGAGCUUUUAGCUCGUCUUAUGAUUCUCGG [Mat - Sensor v3 - turn-off var 1 - JL Mod - D36] (puzzle: Sensor v3, turn-off variant 1) | 502 |  |  | apparent KD of MS2 coat protein [2]: 423 nM; apparent KD of MS2 coat protein [3]: 522 nM |
| CUGAGGUAGCGGUCCUAUGACAUGAGGAUCACCCAUGUGCCUUGCUACAAGCUUUUUGCUCGUUUUAUGAUUCUCGG [JL Atriat mod 10] (puzzle: Sensor v3, turn-off variant 1) | 64.6 |  |  | apparent KD of MS2 coat protein [2]: 72.8 nM; apparent KD of MS2 coat protein [3]: 83.5 nM |
| CUGAGUAGUCAGGAUAUGCUGUACAAAAGUACAGCAGAAGGGACUACAUGAGGAUCACCCAUGUUUACUUCAUG [)mei Ex6 B22] (Eterna round: R97, puzzle: Exclusion 6) |  | 1260 | 821 |  |
| CUGAGUUAAGGAUAUACAUGAGGAUCACCCAUGUAAAGUAGCUUGCGUACAGGCAGAUGUAGAAGGUAAUUCGG [Mod of JL 8 - Jieux - Exclusion 3] (Eterna round: R97, puzzle: Exclusion 3) |  | 37.2 |  |  |
| CUGAGUUGAGGAUAUACAUGAGGAUCACCCAUGUAAAGUAGCUUGCGUACAGGCAGAUGUAGAAGGCAAUUCGG [Mod of JL 3 - Jieux - Exclusion 3] (Eterna round: R97, puzzle: Exclusion 3) |  | 37.6 | 24.5 |  |
| CUGAUGUCAGGAUAUCGGUGGCUCACUAAUGUGUGCCAGACCGAGAAGGGACAUGAGGAUCACCCAUGUCUUUA [Exclusion 4 (Mod5b of #36 by Marzena11)] (Eterna round: R97, puzzle: Exclusion 4) |  | 42.4 | 26.2 |  |
| CUGCAACAUGAGGAUCACCCAUGUCAGGAUAUUCCAAAAUCGUCGAAAGACGAUAACAGAAGAAGGGACAGUAG [Fiskxlusion 7 - Jieux - Exclusion 1] (Eterna round: R97, puzzle: Exclusion 1) |  | 44 | 35.6 |  |
| CUGCCAACGAAGCUUGUCGACAUGAGGAUCACCCAUGUUUCGCAAAGUGUUACAAAAAAAUAUCUGUAUGAAAAUGU [JR_Sensorv2_yov_Sub1319] (Eterna round: R96, puzzle: Sensor v2, turn-off variant) |  | 11.8 | 15.9 | apparent KD of MS2 coat protein [4]: 10.2 nM |
| CUGCGUAGAGGAUAUACAUGAGGAUCACCCAUGUGCUAAAUGACUGCAUGCAAAUCGUGUAGAAGGUUGAAGGG [Eternabot (L2) Solution 85] (Eterna round: R97, puzzle: Exclusion 3) |  | 34.6 | 40.4 |  |
| CUGCUCCGUGUAGGAUAUGCAUACUCCCAUUAUGCAGAAGGACAUGAGGAUCACCCAUGUAUGUUAUUAUCACGUGUAGCGUAC [Design 15] (Eterna round: R96, puzzle: Exclusion NG 1) |  | 104 | 29.9 | apparent KD of MS2 coat protein [4]: 21.2 nM |
| CUGCUCCGUGUAGGAUAUGCGUACAACCAAUAUGCAGAAGGACAUGAGGAUCACCCAUGUAUGUUAUUAUCACGUGAAGCGUCC [Design 21] (Eterna round: R96, puzzle: Exclusion NG 1) |  |  |  | apparent KD of MS2 coat protein [4]: 16 nM |
| CUGCUGGAGCUUCGCUUUGGUCGUACAUGAGGAUCACCCAUGUAGGAUAUGGUAAAAUUCGCCUGCUAGAAGGAUAGAGUGGUC [salish99_ExNG3_r04_619] (Eterna round: R96, puzzle: Exclusion NG 3) |  |  |  | apparent KD of MS2 coat protein [4]: 80.1 nM |
| CUGGAUAGAGGAUAUUGUACUGCUGACAUGAGGAUCACCCAUGUAUGUUAACUCGGCCGUCGAGAAGGCUAACAAA [BotMod 14 - Jieux - Exclusion 5] (Eterna round: R97, puzzle: Exclusion 5) |  | 16.3 | 33.4 |  |

| Sequence | apparent KD of MS2 coat protein [1] [nM] | apparent KD of MS2 coat protein (input ligand: FMN 200 uM) [nM] | apparent KD of MS2 coat protein (input ligand: none) [nM] | also measured |
| --- | --- | --- | --- | --- |
| CUGGUCCGAGGAUAUAUGAUGUGAAACAUGAGGAUCACCCAUGUAAUAUUAUGGAUGGAAAUAGAAGGCGGACUAG [Mat - Exclusion 5 - JL mod - D36] (puzzle: Exclusion 5) | 49.7 |  |  | apparent KD of MS2 coat protein [2]: 63.5 nM; apparent KD of MS2 coat protein [3]: 65.2 nM |
| CUGGUCCGAGGAUAUAUGAUGUGAAACAUGAGGAUCACCCAUGUAAUAUUAUGGAUGUAAAUAGAAGGCGGACUAG [JL-ex5-3.08] (puzzle: Exclusion 5) | 33.9 |  |  | apparent KD of MS2 coat protein [2]: 37.8 nM; apparent KD of MS2 coat protein [3]: 74.2 nM |
| CUGGUCCGAGGAUAUAUUAUGUGAAACAUGAGGAUCACCCAUGUUAUAUAAUGGAUGUAAAUAGAAGGCGGACUAG [Mat - Exclusion 5 - JL mod - D62] (puzzle: Exclusion 5) | 25.5 |  |  | apparent KD of MS2 coat protein [2]: 27.7 nM; apparent KD of MS2 coat protein [3]: 28.2 nM |
| CUGGUCCGAGGAUAUAUUAUGUGAUACAUGAGGAUCACCCAUGUUAUAUGAUGGAUAUUAAUAGAAGGCGGACUAG [Mat - Exclusion 5 - JL mod - D73] (puzzle: Exclusion 5) | 71.5 |  |  | apparent KD of MS2 coat protein [2]: 85.5 nM; apparent KD of MS2 coat protein [3]: 83.9 nM |
| CUGGUCCGAGGAUAUUUUAUGUGAUACAUGAGGAUCACCCAUGUUAUAUGAUGGAUGUUAAAAGAAGGCGGACUAG [Mat - Exclusion 5 - JL mod - D80] (puzzle: Exclusion 5) | 102 |  |  | apparent KD of MS2 coat protein [2]: 77 nM; apparent KD of MS2 coat protein [3]: 114 nM |
| CUGGUGUGAGGAUAUCAAAGACCUCGGGAUAGUAGCGAGGAUGAGAAGGCACAUGAGGAUCACCCAUGUAACAA [Edmaer] (puzzle: Exclusion 4) | 21.2 |  |  |  |
| CUGGUUGUCGAGGAUAUGCACCGGCUCGCUGACGCAGAAGGCGACACAUGAGGAUCACCCAUGUCGGUUCGCGU [salish99_ex6_r004_438] (Eterna round: R97, puzzle: Exclusion 6) |  | 29 | 19.1 |  |
| CUGUACAUAGGAUAUAGUUGUUUUUACAUGAGGAUCACCCAUGUUACUCCUCUCUCUCUUCUAGAAGGAUGUUUUU [JR_E5_Sub007] (Eterna round: R96, puzzle: Exclusion 5) |  | 70.7 | 67 | apparent KD of MS2 coat protein [4]: 50.7 nM |
| CUGUACAUAGGAUAUAGUUGUUUUUACAUGAGGAUCACCCAUGUUACUCCUCUCUCUCUUCUAGAAGGAUGUUUUU [JR_E5_Sub007] (puzzle: Exclusion 5) | 78.1 |  |  |  |
| CUGUACUGAGGAUAUACAUGAGGAUCACCCAUGUUCCAAGGCUAGGAAACUAGCAAAGGUAGAAGGCAGUACAG [Mat - Exclusion 3 - Eli Mod - D67] (Eterna round: R97, puzzle: Exclusion 3) |  | 215 | 17.8 |  |
| CUGUCCCAAGGAUAUACAUCAGUCCCAGGGUGCCGCAUAAGACAUGAGGAUCACCCAUGUAGAAGGUGGAGACC [Esaranre] (puzzle: Exclusion 2) | 82.1 |  |  |  |
| CUGUGCAUAGGAUAUGAAAGAAGAAACAUGAGGAUCACCCAUGUAGCCUCAAAUCUUAUGUCAGAAGGAUGCGUUA [Default title] (Eterna round: R97, puzzle: Exclusion 5) |  | 15.9 | 13.6 |  |
| CUGUUUGUAGGAUAUACAUGCGGAACCCUCCUCGUGUGAAGACAUGAGGAUCACCCAUGUAGAAGGACGAGGAG [Angeer] (Eterna round: R97, puzzle: Exclusion 2) |  | 16 | 16.3 |  |
| CUGUUUUUCGCAGGAUAUGCUCCUCCUUUAUUAGCAGAAGGGCGUUAAACAUGAGGAUCACCCAUGUAUGGUAAUGACAUUUUC [JR_ExcNG1_Sub062] (Eterna round: R96, puzzle: Exclusion NG 1) |  |  |  | apparent KD of MS2 coat protein [4]: 29.8 nM |
| CUGUUUUUCGCAGGAUAUGCUCCUCCUUUAUUUGCAGAAGGGCGUUAAACAUGAGGAUCACCCAUGUAUGGUAAUGACUUUUUC [JR_ExcNG1_Sub064] (Eterna round: R96, puzzle: Exclusion NG 1) |  |  |  | apparent KD of MS2 coat protein [4]: 16.9 nM |
| CUUAAAAGGAAGGAUAUGCUAGACGAAAGUCUAGCAGAAGGUCCUACAUGAGGAUCACCCAUGUGUCCUGUAAG [Mat - Exclusion 6 - Eli Mod - D41] (Eterna round: R97, puzzle: Exclusion 6) |  | 95.6 | 53.9 |  |
| CUUAAACAUGAGGAUCACCCAUGUGAGGAUAUGAUGCGAAUAAAGAAAGAAGAAAGCAUCAGAAGGCACAUAUG (Eterna round: R96, puzzle: Exclusion 1) |  |  |  | apparent KD of MS2 coat protein [4]: 65.9 nM |
